Laboratory results reported in paper PMC4933286.

Tests used:
[1] = target: BTV-1 VP5 mutant 2 (R10L/K13L/K14L) (bluetongue virus serotype 1 (BTV-1)); assay: native gel or EMSA
[2] = target: BTV-1 VP5 mutant 3 (K3L/R6L/R10L/K13L/K14L) (bluetongue virus serotype 1 (BTV-1)); assay: native gel or EMSA

Substance	stoichiometry N [1]	stoichiometry N [2]
BTV-1 VP5 mutant 2 (R10L/K13L/K14L) (natural protein)	3	–
BTV-1 VP5 mutant 3 (K3L/R6L/R10L/K13L/K14L) (natural protein)	–	3
